Measured values as given in patent EP4063498B1.

Target: OXA-23-type carbapenemase (UniProt Q9L4P2)
Assay: indirect ELISA, plate coated with OXA-23-type carbapenemase at 0.2 ug/mL, serial dilution of purified antibody from 1:1,000
Conditions: scale: dilution factor

UniProt Q9L4P2, sequence (Q9L4P2 18-273 limits assumed): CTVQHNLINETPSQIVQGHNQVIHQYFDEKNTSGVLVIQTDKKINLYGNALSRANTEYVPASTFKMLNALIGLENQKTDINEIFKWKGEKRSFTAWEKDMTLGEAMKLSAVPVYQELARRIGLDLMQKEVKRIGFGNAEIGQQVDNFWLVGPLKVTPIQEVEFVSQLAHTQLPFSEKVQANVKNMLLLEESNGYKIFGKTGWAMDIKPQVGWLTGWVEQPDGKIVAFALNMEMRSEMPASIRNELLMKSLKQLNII

Row | Binder | titer
1 | antibody HB12 (antibody, V domains shown) VH: VQLQQSGAELVKPGASVKLSCKTSGYTFTSYWMYWVKQRPGQGLEWIGEIYPTNGRTNYNEKFKTKATLTVDKSSSTAYMQLSSLTSEDSAVYYCAIYYYGSYAMDYWGQGTSVTVSS VL: DIVMTQSHKFMSTSVGDRVSITCKASQDVSIAVAWFQQKPGQSPKLLIYWASTRHTGVPDRFTGSGSGTDYTLTISSVQAEDLALYYCQQHYSTPYLFGGGTKLEIKR | > 640000
2 | antibody FA2 (antibody, V domains shown) VH: VQLKQSGPGLVQPSQSLSITCTVSGFSLTSYGVHWVRRSPGKGLEWLGVIWRGGNTDYNAAFMSRLSITKDNSKSQVFFKMTSLQGDDTAIYSCVKSLTTSTFDYWGQGTLVTVSS VL: DIVMTQSHKLMSTSVGDRVSITCKGSQDVRTAVAWYQQKPGQSPNLLIYWASTRHTGVPDRFTGSGSGTDYILTITSVQAEDLALYYCQQHYSIPYTFGGGTKLEIKR | > 640000
